From publication PMC3855398

Target: hGle1B tagged with mCerulean3 (Cer3-hGle1B) or mVenus (Venus-hGle1B) (human) (UniProt Q53GS7)
Assay: FRET or BRET

Sequence of UniProt Q53GS7 (Q53GS7 whole entry): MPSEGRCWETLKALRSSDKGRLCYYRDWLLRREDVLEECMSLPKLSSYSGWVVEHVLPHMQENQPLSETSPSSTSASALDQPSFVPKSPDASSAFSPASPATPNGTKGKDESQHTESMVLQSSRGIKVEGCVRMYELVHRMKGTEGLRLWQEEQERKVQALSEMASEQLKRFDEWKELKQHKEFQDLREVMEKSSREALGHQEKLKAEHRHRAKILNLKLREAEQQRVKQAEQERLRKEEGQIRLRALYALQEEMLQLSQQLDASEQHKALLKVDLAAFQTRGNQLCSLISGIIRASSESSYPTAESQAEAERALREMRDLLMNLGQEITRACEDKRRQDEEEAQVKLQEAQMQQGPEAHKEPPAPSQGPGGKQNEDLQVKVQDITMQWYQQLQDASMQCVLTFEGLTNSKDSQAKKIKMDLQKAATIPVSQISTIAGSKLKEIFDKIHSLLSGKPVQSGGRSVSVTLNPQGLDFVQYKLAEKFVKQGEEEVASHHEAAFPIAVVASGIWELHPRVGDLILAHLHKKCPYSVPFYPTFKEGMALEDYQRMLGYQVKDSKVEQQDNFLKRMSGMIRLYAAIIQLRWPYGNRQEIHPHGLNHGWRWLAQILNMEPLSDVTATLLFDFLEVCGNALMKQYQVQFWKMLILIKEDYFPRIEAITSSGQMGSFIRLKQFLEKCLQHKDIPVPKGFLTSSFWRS

mCerulean3 alone
FRET efficiency (cytoplasm and nucleoplasm): < 1.25% | normalized FRET (NFRET) signal (all locations): < 4.08
